From FireProtDB (doi:10.1016/j.bpc.2006.10.013)

B1: Rubredoxin, P24297 (parent)
chain: MAKWVCKICGYIYDEDAGDPDNGISPGTKFEELPDDWVCPICGAPKSEFEKLED
B2: Rubredoxin, P00268 (parent)
chain: MKKYTCTVCGYIYNPEDGDPDNGVNPGTDFKDIPDDWVCPLCGVGKDQFEEVEE

How the values were obtained:
[1] = variants of: B1; details: Pyrococcus furiosus (strain ATCC 43587 / DSM 3638 / JCM 8422 / Vc1), pH 9.08, Thermal, NMR, Sodium borate 100 mM, reversible: Yes, structure 1BRF, whole UniProt chain shown
[2] = variants of: B2; details: Clostridium pasteurianum, pH 9.08, Thermal, NMR, Sodium borate 100 mM, reversible: Yes, structure 1IRO, whole UniProt chain shown

| Variant | ddG of mutation (higher = less stable) ([1]; 133.6 °C) [kcal/mol] | heat capacity change of unfolding ([1]; 133.6 °C) [kcal/mol/K] | Tm [1] [°C] | heat capacity change of unfolding [1] [kcal/mol/K] | unfolding enthalpy (van 't Hoff) [1] [kcal/mol] | ddG of mutation (higher = less stable) ([2]; 107 °C) [kcal/mol] | heat capacity change of unfolding ([2]; 107 °C) [kcal/mol/K] | Tm [2] [°C] | ddG of mutation (higher = less stable) [2] [kcal/mol] | heat capacity change of unfolding [2] [kcal/mol/K] | unfolding enthalpy (van 't Hoff) [2] [kcal/mol] |
| --- | --- | --- | --- | --- | --- | --- | --- | --- | --- | --- | --- |
| MAKWVCKICGYIYDEDAGDPDNGISPGTKFEEIPDDWVCPICGAPKSEFEKLED | 0.88 | 0.5 |  |  |  |  |  |  |  |  |  |
| MAKWVCKICGYIYDEDAGDPDNGVSPGTKFEELPDDWVCPICGAPKSEFEKLED |  | 0.5 | 136 | 0.5 | 74 |  |  |  |  |  |  |
| MAKWVCKICGYIYDEDAGDPDNGVSPGTKFEEIPDDWVCPICGAPKSEFEKLED |  |  | 133 | 0.5 | 62 |  |  |  |  |  |  |
| MKKYTCTVCGYIYNPEDGDPDNGINPGTDFKDIPDDWVCPLCGVGKDQFEEVEE |  |  |  |  |  | -0.36 | 0.5 | 110 | -0.36 | 0.5 | 59 |
| MKKYTCTVCGYIYNPEDGDPDNGVNPGTDFKDLPDDWVCPLCGVGKDQFEEVEE |  |  |  |  |  | -0.76 | 0.5 | 112 | -0.76 | 0.5 | 64 |
| MKKWTCTVCGYIYNPEDGDPDNGINPGTDFKDLPDDWVCPLCGVGKDQFEEVEE |  |  |  |  |  |  |  | 114 |  | 0.5 | 63 |
| MKKYTCTVCGYIYNPEDGDPDNGINPGTDFKDLPDDWVCPLCGVGKDQFEEVEE |  |  |  |  |  |  |  | 115 | -1.31 | 0.5 | 65 |
